# Experimental data published in paper PMC3909270, “The basic keratin 10-binding domain of the virulence-associated pneumococcal serine-rich protein PsrP adopts a novel MSCRAMM fold” (Open Biology, 2014).
# T1: KRT10 rod domain (KRT10-ROD) (human, UniProt P13645 137-448, M150L)
# T1 construct: Keratin-10 (KRT10), rod domain, residues 137-448, Uniprot ID P13645; M150L introduced to prevent second translation initiation; source: expressed from pET21d, purified as inclusion bodies, anion exchange in 6 M urea, dialysed against urea-free buffer
# T1 sequence: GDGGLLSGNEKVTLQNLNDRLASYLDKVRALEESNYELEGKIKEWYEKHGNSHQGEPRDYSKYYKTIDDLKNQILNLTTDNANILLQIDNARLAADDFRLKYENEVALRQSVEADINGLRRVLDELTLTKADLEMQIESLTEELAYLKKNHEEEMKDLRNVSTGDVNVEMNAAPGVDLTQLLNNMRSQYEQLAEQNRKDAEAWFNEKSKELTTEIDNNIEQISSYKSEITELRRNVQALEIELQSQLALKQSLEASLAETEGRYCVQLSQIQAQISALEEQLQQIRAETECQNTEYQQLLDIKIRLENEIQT
# T2: full-length keratin-10 (KRT10-FL) (human, UniProt P13645 1-584)
# T2 construct: Keratin-10 (KRT10), residues 1-584, Uniprot ID P13645; also called KRT10-full-length; full-length KRT10; source: expressed from pET21d, purified as inclusion bodies, anion exchange in 6 M urea, dialysed against urea-free buffer
# T2 sequence (looked up): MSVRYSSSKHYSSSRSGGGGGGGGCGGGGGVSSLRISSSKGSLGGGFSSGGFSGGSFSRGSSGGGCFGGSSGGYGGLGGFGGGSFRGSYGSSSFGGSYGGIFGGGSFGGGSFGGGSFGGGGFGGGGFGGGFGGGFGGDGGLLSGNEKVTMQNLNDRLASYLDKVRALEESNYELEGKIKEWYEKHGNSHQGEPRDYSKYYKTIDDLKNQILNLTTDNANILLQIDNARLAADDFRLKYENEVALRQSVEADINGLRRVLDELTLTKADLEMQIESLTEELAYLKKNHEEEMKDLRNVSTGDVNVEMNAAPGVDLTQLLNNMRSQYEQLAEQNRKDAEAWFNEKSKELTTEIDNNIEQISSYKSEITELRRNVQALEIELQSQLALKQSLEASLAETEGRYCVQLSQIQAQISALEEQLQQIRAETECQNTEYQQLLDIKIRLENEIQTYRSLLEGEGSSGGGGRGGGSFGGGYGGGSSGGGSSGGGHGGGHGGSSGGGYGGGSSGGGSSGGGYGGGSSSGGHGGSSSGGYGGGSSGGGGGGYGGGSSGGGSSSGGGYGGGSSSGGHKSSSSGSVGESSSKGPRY
# T3: N321A-BR_(187–385) (S. pneumoniae TIGR4, UniProt A0A0H2URK1 186-384, N321A)
# T3 construct: PsrP, S. pneumoniae TIGR4, residues 187-385, with N321A; source: expressed from pET21d; purification of the mutants not detailed (SEC mentioned)
# T3 sequence: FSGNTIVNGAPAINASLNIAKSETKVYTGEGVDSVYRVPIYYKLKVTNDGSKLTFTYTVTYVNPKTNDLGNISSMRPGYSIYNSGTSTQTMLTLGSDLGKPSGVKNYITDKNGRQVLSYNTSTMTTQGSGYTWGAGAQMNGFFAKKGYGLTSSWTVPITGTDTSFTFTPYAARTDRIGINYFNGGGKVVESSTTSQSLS
# T4: K231A-BR_(187–385) (S. pneumoniae TIGR4, UniProt A0A0H2URK1 186-384, K231A)
# T4 construct: PsrP, S. pneumoniae TIGR4, residues 187-385, with K231A; also called control K231A-BR_(187–385); source: expressed from pET21d; purification of the mutants not detailed (SEC mentioned)
# T4 sequence: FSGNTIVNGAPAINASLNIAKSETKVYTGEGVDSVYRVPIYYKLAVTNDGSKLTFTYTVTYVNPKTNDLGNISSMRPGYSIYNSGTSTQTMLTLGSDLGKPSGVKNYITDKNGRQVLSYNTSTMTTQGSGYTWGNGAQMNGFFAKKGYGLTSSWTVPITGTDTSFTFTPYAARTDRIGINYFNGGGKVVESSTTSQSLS
# B1: KRT10 tail-rod-2B domain (KRT10-TRD) (domain or fragment)
# chain: LKQSLEASLAETEGRYCVQLSQIQAQISALEEQLQQIRAETECQNTEYQQLLDIKIRLENEIQTYRSLLEGEGSSGGGGRGGGSFGGGYGGGSSGGGSSGGGHGGGHGGSSGGGYGGGSSGGGSSGGGYGGGSSSGGHGGSSSGGYGGGSSGGGGGGYGGGSSGGGSSSGGGYGGGSSSGGHKSSSSGSVGESSS
# notes: Keratin-10 (KRT10), tail-rod-2B domain, residues 385-579, Uniprot ID P13645; source: expressed from pET21d, soluble, purified (IMAC, anion exchange)
# Key:
# Settings in all cases: both partners purified
# [1] = target: B1; experiment: ELISA; KRT10 constructs coated on Nunc C96 plates (coating adjusted to KRT10-TRD at about 5 µg/ml), 2% BSA block; STII-BR_(187–385) 23 nM to 3 µM in PBS; detected with Strep-Tactin HRP; four-parameter logistic fit
# [2] = target: T1, KRT10 rod domain (KRT10-ROD); experiment: as above
# [3] = target: T2, full-length keratin-10 (KRT10-FL); experiment: as above
# N321A-BR_(187–385) = target: T3, N321A-BR_(187–385); experiment: ELISA; KRT10-TRD coated; WT-BR_(187–385) and mutated variants at a single concentration of 1 µM; detected with Strep-Tactin HRP; normalised intensities
# K231A-BR_(187–385) = target: T4, K231A-BR_(187–385); experiment: as above
Binder,EC50 [1] [nM],EC50 [2] [nM],EC50 [3] [nM],binding result (N321A-BR_(187–385)),binding result (K231A-BR_(187–385))
"Strep-Tag-II BR_(187–385) (KRT10-binding domain of the pneumococcal serine-rich repeat protein PsrP) (domain or fragment, also called STII-BR_(187–385); WT-BR_(187–385)) FSGNTIVNGAPAINASLNIAKSETKVYTGEGVDSVYRVPIYYKLKVTNDGSKLTFTYTVTYVNPKTNDLGNISSMRPGYSIYNSGTSTQTMLTLGSDLGKPSGVKNYITDKNGRQVLSYNTSTMTTQGSGYTWGNGAQMNGFFAKKGYGLTSSWTVPITGTDTSFTFTPYAARTDRIGINYFNGGGKVVESSTTSQSLS",345,~1800,345,–,–
B1,–,–,–,binds,binds
